Test results reported in patent US11840557B2, “Wnt7 variants capable of activating g-protein coupled receptor (Gpr)124/Reck/frizzled/lipoprotein receptor-related protein (LRP)-mediated Wnt signaling” (UNIVERSITÉ LIBRE DE BRUXELLES, priority 2018, dated 2023).
Ends that are not written are not given here.

What was measured:
[1] = target: Reck-CK-Fc; experiment: Isothermal titration calorimetry (ITC) of synthetic Wnt linker peptides into recombinant Reck-CK-Fc; assay type: binding
Procedure: Reck-CK-Fc fusion proteins were recovered in serum-free FreeStyle 293 Expression Medium (Thermo Fisher Scientific, Waltham, Mass.) from the supernatant of HEK293T cell cultures 72 h post transfection with Lipofectamine 2000 (Life Technologies, Carlsbad, Calif.). After collection, the supernatants were either concentrated 50 times by centrifugation (GE Healthcare, Little Chalfont, UK) or submitted to Protein G affinity purification (Protein G Sepharose 4 Fast Flow, Sigma-Aldrich, St. Louis, Mo.). Protein purity was assessed using Coomassie blue staining after PAGE. Synthetic Wnt linker peptides were obtained from Chinapeptide Co., Ltd at purities over 90%.
ITC titrations were carried out on an Affinity ITC (TA Instruments). Prior to the measurement, Reck-CK-Fc and all Reck-CK-Fc fusions were dialyzed to Tris-NaCl buffer (50 mM Tris pH8, 300 mM NaCl). In each case Wnt-derived peptides were prepared with buffer from the last step of protein dialysis. The samples were filtered and degassed before being examined in the calorimeter and the titrations were performed 25° C. All the experiments consisted of injection of constant volumes of 2 μL of titrant into the cell (200 μL) with a stirring rate of 75 rpm. Nominal sample concentrations were between 20 μM and 40 μM in the cell and 400 μM to 1.0 mM in the syringe. Actual sample concentrations were determined after dialysis or buffer exchange by measurement of their absorption at 280 nm or the BCA method. All data were analyzed using the MicroCal Origin ITC 7.0, and NanoAnalyze software packages.

[2] = test system: plasma membrane of HEK293 cells; experiment: Anti-V5 immunostaining of transiently expressed V5-tagged Wnt ligands in non-permeabilized cells; assay type: cell-based, human
Procedure: 1.7. Immunofluorescence and Proximity Ligation Assay Cells were grown in glass-coated chambers (IBIDI, Martinsried, Germany) and transfected after 24 h with Lipofectamine 2000 (Life Technologies, Carlsbad, Calif.). Cells were fixed with 4% paraformaldehyde for 10 min at room temperature (RT) 48 h post transfection. For immunofluorescence staining (IF), cells were blocked in 1% BSA-PBS for 30 min before being exposed to primary antibodies for 1 h at RT. After three PBS washes, cells were incubated with secondary antibodies for 1 h at RT. For anti-V5 staining of Wnt ligands, cells were additionally washes for 10 min in PBS 0.1% Tween 20 before incubation with the secondary antibody solution. For the proximity ligation assay (PLA) (Sigma-Aldrich, St. Louis, Mo.), cells were blocked for 30 min at 37° C. with the Blocking solution provided by the manufacturer before being incubated with the primary antibodies for 1 h at RT. Cells were washed three times and incubated with the PLA probes anti-rabbit PLUS and anti-mouse MINUS for 1 h at 37° C. After two PBS washes, cells were incubated with the Duolink Ligation solution for 30 min at 37° C. […]
It was determined how Wnt7 is specifically recognized within this signaling module, a question inherently complicated by the ubiquitous expression of Frizzled receptors and their Lrp5/6 co-receptors in vertebrate cells. […]

[3] = target: T1, HA-Reck (Homo sapiens, UniProt O95980); experiment: Proximity ligation assay (PLA), anti-V5/anti-HA, V5-tagged Wnt ligand and HA-Reck in GPR124−/−;RECK−/− cells; assay type: cell-based; conditions: GPR124−/−;RECK−/− cells co-expressing HA-Reck
T1 construct: expressed in transfected cells; host or cells: GPR124-/-;RECK-/- HEK293 (STF) cells, pCS2 / CMV promoter
T1 sequence (O95980 23-942): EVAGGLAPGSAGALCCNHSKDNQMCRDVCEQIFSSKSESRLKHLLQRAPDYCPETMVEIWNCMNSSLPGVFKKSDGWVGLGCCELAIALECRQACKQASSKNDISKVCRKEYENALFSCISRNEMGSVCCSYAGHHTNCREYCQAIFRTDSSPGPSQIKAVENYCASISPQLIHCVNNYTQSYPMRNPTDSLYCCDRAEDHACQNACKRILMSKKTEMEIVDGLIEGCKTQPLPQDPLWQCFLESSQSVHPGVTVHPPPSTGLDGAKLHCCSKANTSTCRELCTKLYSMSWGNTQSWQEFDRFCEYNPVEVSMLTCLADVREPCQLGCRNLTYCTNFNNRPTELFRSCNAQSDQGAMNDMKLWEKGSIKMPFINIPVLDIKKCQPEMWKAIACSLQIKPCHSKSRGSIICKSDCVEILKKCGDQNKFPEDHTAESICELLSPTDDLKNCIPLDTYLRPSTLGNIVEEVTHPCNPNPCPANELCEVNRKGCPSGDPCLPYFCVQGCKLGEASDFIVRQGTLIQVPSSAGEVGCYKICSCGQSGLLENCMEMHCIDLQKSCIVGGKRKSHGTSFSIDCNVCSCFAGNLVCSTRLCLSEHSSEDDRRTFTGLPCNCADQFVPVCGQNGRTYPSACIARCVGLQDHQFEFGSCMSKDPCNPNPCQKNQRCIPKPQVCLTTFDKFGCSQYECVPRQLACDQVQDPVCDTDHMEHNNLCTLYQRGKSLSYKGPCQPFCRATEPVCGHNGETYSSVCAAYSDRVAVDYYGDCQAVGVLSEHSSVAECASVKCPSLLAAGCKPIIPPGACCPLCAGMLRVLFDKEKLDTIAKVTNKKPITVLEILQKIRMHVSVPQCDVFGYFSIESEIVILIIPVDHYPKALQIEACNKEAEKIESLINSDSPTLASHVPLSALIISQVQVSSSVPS
Procedure: 1.7. Immunofluorescence and Proximity Ligation Assay Cells were grown in glass-coated chambers (IBIDI, Martinsried, Germany) and transfected after 24 h with Lipofectamine 2000 (Life Technologies, Carlsbad, Calif.). Cells were fixed with 4% paraformaldehyde for 10 min at room temperature (RT) 48 h post transfection. For immunofluorescence staining (IF), cells were blocked in 1% BSA-PBS for 30 min before being exposed to primary antibodies for 1 h at RT. After three PBS washes, cells were incubated with secondary antibodies for 1 h at RT. For anti-V5 staining of Wnt ligands, cells were additionally washes for 10 min in PBS 0.1% Tween 20 before incubation with the secondary antibody solution. For the proximity ligation assay (PLA) (Sigma-Aldrich, St. Louis, Mo.), cells were blocked for 30 min at 37° C. with the Blocking solution provided by the manufacturer before being incubated with the primary antibodies for 1 h at RT. Cells were washed three times and incubated with the PLA probes anti-rabbit PLUS and anti-mouse MINUS for 1 h at 37° C. After two PBS washes, cells were incubated with the Duolink Ligation solution for 30 min at 37° C. After two PBS washes, cells were incubated with the Duolink Amplification solution for 100 min at 37° C. The following antibodies were used: mouse monoclonal anti-V5 (R96025, Life Technologies, Carlsbad, Calif.) at 1:500 for IF and PLA, purified polyclonal rabbit anti-HA (H6908, St. Louis, Mo.) at 1:400 for IF and PLA and anti-mouse Alexa488-conjugated secondary antibody (Thermo Fisher Scientific, Waltham, Mass.) at 1:5000. Cells were stained for 2 min with Hoechst diluted to 10 μg ml-1 in PBS.
Cells and zebrafish embryos were imaged with an LSM710 confocal microscope and images were processed in ImageJ. Images of eye fusion phenotypes were taken on Leica M165 FC. Representations of brain vasculature were generated using Imaris software (BitPlane, Zurich, Switzerland). The percentage of PLA positive (PLA+) areas and DAPI positive (DAPI+) areas were calculated using ImageJ on images containing about 50 to 100 cells. The PLA+ area was measured after manually applying a fixed threshold. The DAPI+ area was measured after applying the “default” thresholding method in Image J.

## VEVVRASRLRQPTFLRIKQLRSYQKPMET [pWnt7b]
[1]; 25° C., Tris-NaCl buffer pH8, read-out: affinity of binding to Reck (ITC)
  Kd: 1200 nM
[1]; Reck-CK^ΔCK1-Fc to Reck-CK^ΔCK5-Fc
  Reck CK motifs required for binding (ITC with Reck-CK-Fc deletion variants): required Reck CK4 and CK5, but not CK1, CK2 and CK3

## pWnt3a: control equivalent linker peptide of Wnt3a (MVVEKHRESRGWVETLRPRYTYFKVPTER) [reference compound]
[1]; 25° C.
  binding to Reck-CK-Fc (ITC): no binding

B1: Wnt7a-V5: V5-tagged Wnt7a ligand transiently expressed in cells (protein)
chain: LGASIICNKIPGLAPRQRAICQSRPDAIIVIGEGSQMGLDECQFQFRNGRWNCSALGERTVFGKELKVGSREAAFTYAIIAAGVAHAITAACTQGNLSDCGCDKEKQGQYHRDEGWKWGGCSADIRYGIGFAKVFVDAREIKQNARTLMNLHNNEAGRKILEENMKLECKCHGVSGSCTTKTCWTTLPQFRELGYVLKDKYNEAVHVEPVRASRNKRPTFLKIKKPLSYRKPMDTDLVYIEKSPNYCEEDPVTGSVGTQGRACNKTAPQASGCDLMCCGRGYNTHQYARVWQCNCKFHWCCYVKCNTCSERTEMYTCK
modifications: left off: small tags and cut ends
notes: V5-tagged Wnt7a ligand transiently expressed in cells
[2]; GPR124−/−;RECK−/− cells
  immunodetection at the plasma membrane: not at those of GPR124^−/−;RECK^−/− cells
[2]; WT, FZ1-10−/− and LRP5−/−;LRP6−/− cells
  immunodetection at the plasma membrane: could be immunodetected at the plasma membrane

B2: Wnt7a′: garbled label of a Wnt7a domain variant, probably the C-terminal domain alone (protein)
chain: LGASIICNKIPGLAPRQRAICQSRPDAIIVIGEGSQMGLDECQFQFRNGRWNCSALGERTVFGKELKVGSREAAFTYAIIAAGVAHAITAACTQGNLSDCGCDKEKQGQYHRDEGWKWGGCSADIRYGIGFAKVFVDAREIKQNARTLMNLHNNEAGRKILEENMKLECKCHGVSGSCTTKTCWTTLPQFRELGYVLKDKYNEAVHVEPVRASRNKRPTFLKIKKPLSYRKPMDTDLVYIEKSPNYCEEDPVTGSVGTQGRACNKTAPQASGCDLMCCGRGYNTHQYARVWQCNCKFHWCCYVKCNTCSERTEMYTCK
[3]
  Reck binding (anti-V5/anti-HA PLA signal): did not

B3: Wnt7a^S206A: mutant Wnt7a incapable of being palmitoylated at Serine 206 (protein)
chain: LGASIICNKIPGLAPRQRAICQSRPDAIIVIGEGSQMGLDECQFQFRNGRWNCSALGERTVFGKELKVGSREAAFTYAIIAAGVAHAITAACTQGNLSDCGCDKEKQGQYHRDEGWKWGGCSADIRYGIGFAKVFVDAREIKQNARTLMNLHNNEAGRKILEENMKLECKCHGVAGSCTTKTCWTTLPQFRELGYVLKDKYNEAVHVEPVRASRNKRPTFLKIKKPLSYRKPMDTDLVYIEKSPNYCEEDPVTGSVGTQGRACNKTAPQASGCDLMCCGRGYNTHQYARVWQCNCKFHWCCYVKCNTCSERTEMYTCK
modifications: left off: small tags and cut ends
[3]
  Reck binding (anti-V5/anti-HA PLA signal): bound Reck efficiently

B4: Wnt7a^1-212: smaller NTD variant lacking the linker region (protein)
chain: LGASIICNKIPGLAPRQRAICQSRPDAIIVIGEGSQMGLDECQFQFRNGRWNCSALGERTVFGKELKVGSREAAFTYAIIAAGVAHAITAACTQGNLSDCGCDKEKQGQYHRDEGWKWGGCSADIRYGIGFAKVFVDAREIKQNARTLMNLHNNEAGRKILEENMKLECKCHGVSGSCTTK
modifications: left off: small tags and cut ends
notes: smaller NTD variant lacking the linker region
[3]
  Reck binding (anti-V5/anti-HA PLA signal): did not bind Reck

B5: Wnt71-237: smaller NTD variant lacking the linker region (protein)
chain: LGASIICNKIPGLAPRQRAICQSRPDAIIVIGEGSQMGLDECQFQFRNGRWNCSALGERTVFGKELKVGSREAAFTYAIIAAGVAHAITAACTQGNLSDCGCDKEKQGQYHRDEGWKWGGCSADIRYGIGFAKVFVDAREIKQNARTLMNLHNNEAGRKILEENMKLECKCHGVSGSCTTKTCWTTLPQFRELGYVLKDKYNEAVH
modifications: left off: small tags and cut ends
notes: as for B4
[3]
  Reck binding (anti-V5/anti-HA PLA signal): did not bind Reck
